Experimental data published in patent publication US20240342310A1 (UNIVERSITY OF VIRGINIA PATENT FOUNDATION, published 2024).

Molecular target: T1, fibronectin leucine rich transmembrane protein 3 (FLRT3) (UniProt Q9NZU0 29-649, limits assumed)
T1 sequence (looked up): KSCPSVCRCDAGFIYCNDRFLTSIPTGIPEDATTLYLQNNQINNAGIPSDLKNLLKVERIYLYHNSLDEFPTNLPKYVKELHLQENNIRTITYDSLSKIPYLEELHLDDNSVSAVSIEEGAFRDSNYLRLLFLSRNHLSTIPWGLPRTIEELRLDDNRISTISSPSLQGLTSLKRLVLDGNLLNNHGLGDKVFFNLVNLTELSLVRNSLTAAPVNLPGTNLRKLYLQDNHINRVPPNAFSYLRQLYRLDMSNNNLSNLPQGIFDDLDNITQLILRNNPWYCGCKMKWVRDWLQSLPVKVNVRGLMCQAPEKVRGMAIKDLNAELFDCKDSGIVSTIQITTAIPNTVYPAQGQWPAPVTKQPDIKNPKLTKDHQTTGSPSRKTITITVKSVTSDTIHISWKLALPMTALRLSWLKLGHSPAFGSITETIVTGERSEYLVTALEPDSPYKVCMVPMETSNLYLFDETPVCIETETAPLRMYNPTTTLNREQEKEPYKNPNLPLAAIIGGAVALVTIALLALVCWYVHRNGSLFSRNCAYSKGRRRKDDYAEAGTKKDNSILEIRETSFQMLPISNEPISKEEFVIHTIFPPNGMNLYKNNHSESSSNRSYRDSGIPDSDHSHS
Experiment: co-immunoprecipitation (data not shown)

binding result: no binding
B1: circCCDC7-180aa (other)
chain: MQVGNSQTKVKGEDSKNIPLEKETRKSLVSDSGGQRTSDKIQEYPQITAQSGRLIEKSSEKKRSSPAISDLSQILKSQDESAFLESSNEVSVAENQSYKSPSETHDKSLTTVSSSKEVQDSLSVGTLAQKNETVISPFILPPVLTESKKADVSEEQLQKMTEEQTYQAAEKSQESSTSGN
notes: All other experiments on the protein used the C-terminally 3xFLAG-tagged form expressed from plenti-ciR-GFP-T2A; also called 180aa protein encoded by circCCDC7(15, 16, 17, 18, 19); CCDC719-15 encoded protein; not shown: 3xFLAG tag inserted just before the stop codon in the expression construct
